# In patent publication US20240287138A1 (Merck Sharp & Dohme, published 2024):
# Numbered stars: 1 amine (or outer) side, 2 acyl side, 3 side chain; on linkers, the order of the positions; unused ones are H or OH. Bridge positions count the residues as written; N and C are the ends. Square brackets hold non-standard residues; d marks the D form. Primed or numbered codes have the meaning given here. NEtCNG = 2-(2-Cyanoethylamino)acetic acid ((2-cyanoethyl)glycine), N#CCCN(CC(=O)[*:2])[*:1]; bhcLeu = (1R,3S)-3-aminocyclopentane-1-carboxylic acid, O=C([C@@H]1CC[C@H](N[*:1])C1)[*:2]; Trp(βS-Me,7-OMe) = COc1cccc2c([C@H](C)[C@H](N)C(=O)O)c[nH]c12; Trp(βS-Me) = C[C@@H](c1c[nH]c2ccccc12)[C@H](N)C(=O)O; Trp(7-Cl) = N[C@@H](Cc1c[nH]c2c(Cl)cccc12)C(=O)O; Phe(4-CONH2) = NC(=O)c1ccc(C[C@H](N)C(=O)O)cc1; Phe(4-COOH) = N[C@@H](Cc1ccc(C(=O)O)cc1)C(=O)O; Trp(7-aza) = N[C@@H](Cc1c[nH]c2ncccc12)C(=O)O; Pip(5R-OH) = O=C(O)[C@@H]1CC[C@@H](O)CN1; αMeW = C[C@](N)(Cc1c[nH]c2ccccc12)C(=O)O; Ala(2-furyl) = N[C@@H](Cc1ccco1)C(=O)O; 2Nal = N[C@@H](Cc1ccc2ccccc2c1)C(=O)O; Dap(CONH2) = NC(=O)NC[C@H](N)C(=O)O; Pip(4-aza) = O=C(O)[C@@H]1CNCCN1; 3Pal = N[C@@H](Cc1cccnc1)C(=O)O; 4Pal = N[C@@H](Cc1ccncc1)C(=O)O; NMeE = CN[C@@H](CCC(=O)O)C(=O)O; Pip = O=C(O)[C@@H]1CCCCN1; αMeS = C[C@](N)(CO)C(=O)O; Nle = CCCC[C@H](N)C(=O)O; Ahp′ = not defined here; Sar = CNCC(=O)O
# T1: TNFR1 on THP-1 Lucia NF-κB cells (UniProt P19438 30-455, limits assumed)
# T1 sequence (looked up): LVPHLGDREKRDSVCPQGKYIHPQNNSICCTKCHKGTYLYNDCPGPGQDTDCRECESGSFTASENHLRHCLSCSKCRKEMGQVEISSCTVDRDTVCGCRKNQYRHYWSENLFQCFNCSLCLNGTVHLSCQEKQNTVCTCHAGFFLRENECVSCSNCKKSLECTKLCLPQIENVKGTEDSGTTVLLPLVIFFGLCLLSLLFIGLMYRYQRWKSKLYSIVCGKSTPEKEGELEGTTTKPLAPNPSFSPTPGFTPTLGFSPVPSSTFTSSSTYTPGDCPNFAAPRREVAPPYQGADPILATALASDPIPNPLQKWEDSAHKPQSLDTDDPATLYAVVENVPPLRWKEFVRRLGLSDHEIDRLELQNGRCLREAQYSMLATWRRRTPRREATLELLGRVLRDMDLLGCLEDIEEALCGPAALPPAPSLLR
# Target: T1, TNFR1 on THP-1 Lucia NF-κB cells
# Assay: cell-based or functional assay
row,Binder,THP-1 IC50 [nM]
1,"{CH2CO}-[Nle][4Pal][Pip][Trp(7-aza)][NEtCNG]N[4Pal][Trp(7-Cl)][αMeS][Phe(4-COOH)]Y[Sar][Trp(βS-Me,7-OMe)]C-NH2 (thioether N-14; SMILES CCCC[C@@H]1NC(=O)CSC[C@@H](C(N)=O)NC(=O)[C@H]([C@@H](C)c2c[nH]c3c(OC)cccc23)NC(=O)CN(C)C(=O)[C@H](Cc2ccc(O)cc2)NC(=O)[C@H](Cc2ccc(C(=O)O)cc2)NC(=O)[C@](C)(CO)NC(=O)[C@H](Cc2c[nH]c3c(Cl)cccc23)NC(=O)[C@H](Cc2ccncc2)NC(=O)[C@H](CC(N)=O)NC(=O)CN(CCC#N)C(=O)[C@H](Cc2c[nH]c3ncccc23)NC(=O)[C@@H]2CCCCN2C(=O)[C@H](Cc2ccncc2)NC1=O) [SEQ ID NO. 228]",4
2,"cyclo([bhcLeu][Nle][4Pal][Pip(4-aza)]W[NMeE][Dap(CONH2)][4Pal][Trp(7-Cl)][αMeS][Phe(4-COOH)]Y[Sar][Trp(βS-Me,7-OMe)]) (SMILES CCCC[C@@H]1NC(=O)[C@@H]2CC[C@@H](C2)NC(=O)[C@H]([C@@H](C)c2c[nH]c3c(OC)cccc23)NC(=O)CN(C)C(=O)[C@H](Cc2ccc(O)cc2)NC(=O)[C@H](Cc2ccc(C(=O)O)cc2)NC(=O)[C@](C)(CO)NC(=O)[C@H](Cc2c[nH]c3c(Cl)cccc23)NC(=O)[C@H](Cc2ccncc2)NC(=O)[C@H](CNC(N)=O)NC(=O)[C@H](CCC(=O)O)N(C)C(=O)[C@H](Cc2c[nH]c3ccccc23)NC(=O)[C@@H]2CNCCN2C(=O)[C@H](Cc2ccncc2)NC1=O) [SEQ ID NO. 225]",0.9
3,"cyclo([bhcLeu][LysMe2][4Pal][Pip(5R-OH)]W[NMeE]N[4Pal][Trp(7-Cl)][αMeS][Phe(4-CONH2)]Y[Sar][Trp(βS-Me,7-OMe)]) [SEQ ID NO. 238]",0.7
4,{CH2CO}-[Ahp′][4Pal]S[Trp(βS-Me)][dP]N[Phe(4-COOH)][2Nal][αMeS][Phe(4-COOH)]H[Sar][αMeW]C-NH2 (thioether N-14; reading uncertain; also: printed as cyclo(ClAc-Ahp-4Pal-S-SbMeW-dP-N-Phe4COOH-2Nal-aMeS-Phe4COOH-H-Sar-aMeW-C)-NH2) [SEQ ID NO. 237],20.8
5,"{CH2CO}-[Nle][4Pal][Pip(4-aza)]W[dP]N[Ala(2-furyl)][Trp(7-Cl)][αMeS][Phe(4-COOH)]Y[Sar][Trp(βS-Me,7-OMe)]C-NH2 (thioether N-14; SMILES CCCC[C@@H]1NC(=O)CSC[C@@H](C(N)=O)NC(=O)[C@H]([C@@H](C)c2c[nH]c3c(OC)cccc23)NC(=O)CN(C)C(=O)[C@H](Cc2ccc(O)cc2)NC(=O)[C@H](Cc2ccc(C(=O)O)cc2)NC(=O)[C@](C)(CO)NC(=O)[C@H](Cc2c[nH]c3c(Cl)cccc23)NC(=O)[C@H](Cc2ccco2)NC(=O)[C@H](CC(N)=O)NC(=O)[C@H]2CCCN2C(=O)[C@H](Cc2c[nH]c3ccccc23)NC(=O)[C@@H]2CNCCN2C(=O)[C@H](Cc2ccncc2)NC1=O) [SEQ ID NO. 236]",4.2
6,{CH2CO}-[Ahp′]Y[AlaPiperaz][Trp(βS-Me)][dP]N[4Pal][Trp(7-Cl)][αMeS][Phe(4-COOH)][3Pal][Sar][αMeW]C-NH2 (thioether N-14; reading uncertain; also: printed as cyclo(ClAc-Ahp-Y-AlaPiperaz-SbMeW-dP-N-4Pal-Trp7Cl-aMeS-Phe4COOH-3Pal-Sar-aMeW-C)-NH2) [SEQ ID NO. 226],10
